Assay in all cases: UDP-Glo glucosyl transferase assay, purified enzyme
Holding throughout (type): biochemical, Zea mays

The test system of series [1] is CON1C(=O)N(c2cc(C(F)(F)F)ccn2)C(O)[C@@H]1C. Conditions: other: DMSO reagent blank as control, pH 7.5. How it is done: (§1) Glucosyl transferase activity is assayed via measurement of acceptor substrate-dependent production of UDP from ultrapure UDP-glucose using the Promega UDP-Glo™ method and according to the manufacturer's instructions. Assays are run in 96 well microtiter plates.
(§2) Enzyme, typically at a stock concentration of ˜2 mg/ml is diluted to an appropriate concentration in 50 mM K^+ Hepes buffer at pH7.5 containing 0.5 mg/mL bovine serum albumin (BSA) and 5 ul aliquots of this diluted enzyme added to each well of a Perkin Elmer white ½ area 96 well plate. […] Assays are run for an appropriate time (usually 10 to 60 min) so that the amount of UDP formed lies within the most nearly linear part of the UDP standard curve and are stopped with the addition and mixing of 25 ul UDP-Glo™ detection reagent (prepared as described below). Plates are then incubated at room temperature for 60 minutes and then read in a luminescence plate reader (Perkin Elmer Envision 2130 Multilabel Reader). A UDP standard curve is run alongside each set of assays and reagent blank control assays run with DMSO in place of test herbicide. Typically, 300 pmol of UDP corresponds to a Relative Luminescence Unit (RLU) reading of about 1.5E7 and the response curve between 0 and 600 pmol is fitted to a polynomial function (see for example FIG. 2).
(§3) The UDP-Glo™ reagents are made up and used according to the manufacturer's instructions. Thus, Nucleotide Detection Buffer and ATP are combined to make nucleotide detection reagent (NDR) dispensed into aliquots and frozen to be freshly thawed before use.
(§4) Km and kcat values in respect of UDP-glucose are derived by carrying out experiments to measure initial rates over a suitable range of concentrations of UDP glucose out at a fixed near saturating concentration of acceptor substrate. Best fit values of kcat, Km and kcat/Km are obtained by direct fitting of the data to the Michaelis-Menten equation using Graphpad Prism™ software.
(§5) Variants of C-terminally his tagged SEQ ID No:1 (w/t bx9 from Zea mays), exemplified as SEQ ID 16-30, were cloned, purified and assayed as described in Example 1. FIG. 4 depicts the data from some experiments to determine the kinetic parameters of some of these variants in respect of herbicide VI and table 12 summarizes the estimates of kinetic parameters obtained from further such experiments in respect of a range of herbicides.

For series [2], the system named is CN1CC(O)N(c2cc(C(F)(F)F)c(Cl)cn2)C1=O. Conditions: other: control = inactive H24A mutant of bx9 (asterisk), pH 7.5.
For series [3], the system named is CN1CC(O)N(c2cc(C(F)(F)F)ccn2)C1=O. Conditions: other: DMSO reagent blank as control, pH 7.5.
The subject of series [4] is CON1C(=O)N(c2cc(C(F)(F)F)c(Cl)cn2)C(O)C1C. Conditions: other: control = inactive H24A mutant of bx9 (asterisk), pH 7.5.
For series [5], the system named is Cc1cnc(N2C(=O)N(C)CC2O)cc1C(F)(F)F. Conditions: other: control = inactive H24A mutant of bx9 (asterisk), pH 7.5.
The test system of series [6] is CN1CC(O)N(c2cc(C(F)(F)F)ccn2)C1=O. Conditions: other: DMSO reagent blank as control, pH 7.5. As to the method:
as §1, §2, §3, §4, §5
This is another data set of the same source.

Series [7] deals with CON1C(=O)N(c2cc(C(F)(F)F)ccn2)C(O)[C@@H]1C. Conditions: other: DMSO reagent blank as control, pH 7.5. The source holds these as a separate data set.

As for “SEQ ID 25, mutant of Zea mays bx9 glucosyl transferase (Zea mays; A334R/M279F/S117C)”, in series [1], the Km worked out at 8.5 µM, the catalytic constant (kcat) turned out to be 3.24 s⁻¹ and the kcat/Km turned out to be 380000 M⁻¹ s⁻¹.

As for “SEQ ID NO 22, mutant of Zea mays bx9 glucosyl transferase (Zea mays; A334K/F21Y/M279F/S117V/T220P)”, the Km worked out at 320 µM in series [2], 14.7 µM in series [3], 20 µM in series [4] and 200 µM in series [5]. Also, the turnover number (kcat) in series [2] was 0.8 s⁻¹; in series [3], 1.32 s⁻¹; in series [4], 1.68 s⁻¹; in series [5] it was 1.16 s⁻¹. Also, the kcat/Km in series [2] is 2500 M⁻¹ s⁻¹; in series [3], 89700 M⁻¹ s⁻¹; in series [4], 68900 M⁻¹ s⁻¹; in series [5], 5950 M⁻¹ s⁻¹.

Take “SEQ ID NO 16, zmBX9 S117V, M279F, A334R mutant (Zea mays; A334R/M279F/S117V)”: in series [1], the Michaelis-Menten constant (Km) was 2.8 µM, the catalytic constant (kcat) was 2.45 s⁻¹ and the kcat/Km is 880000 M⁻¹ s⁻¹.

Consider “SEQ ID 24, mutant of Zea mays bx9 glucosyl transferase (Zea mays; A334K/L194C/M279F/S117V)”, for which, in series [6], the Km was 45.5 µM, the turnover number (kcat) stood at 2.61 s⁻¹ and the kcat/Km was found to be 57500 M⁻¹ s⁻¹.

Take “SEQ ID NO 17, zmBX9 S117V, M279F, A334K mutant (Zea mays; A334K/M279F/S117V)”: the Km in series [2] is 10530 µM; in series [3], 109.7 µM; in series [7], 2.2 µM; in series [4], 190 µM; in series [5] it was 800 µM. Also, the catalytic constant (kcat) stood at 2.04 s⁻¹ in series [2]; 0.852 s⁻¹ in series [3]; 2.08 s⁻¹ in series [7]; 2.08 s⁻¹ in series [4]; 0.38 s⁻¹ in series [5]. Moreover, the catalytic efficiency (kcat/Km) in series [2] is 190 M⁻¹ s⁻¹; in series [3], 7800 M⁻¹ s⁻¹; in series [7] it was 938000 M⁻¹ s⁻¹; in series [4], 11200 M⁻¹ s⁻¹; in series [5], 480 M⁻¹ s⁻¹.
